Test results reported in patent publication US20210268073A1, “METHODS OF REDUCING POLYSORBATE DEGRADATION IN DRUG FORMULATIONS” (Regeneron Pharmaceuticals, Inc., priority 2020, published 2021).

Conditions: pH 6

B1: human liver carboxylesterase 1: commercial human liver carboxylesterase 1 purchased from Abcam, SEQ ID NO: 12 (protein, listed as Homo sapiens)
chain: MWLRAFILATLSASAAWGHPSSPPVVDTVHGKVLGKFVSLEGFAQPVAIFLGIPFAKKPLGPLRFTPPQPAEPWSFVKNATSYPPMCTQDPKAGQLLSELFTNRKENIPLKLSEDCLYLNIYTPADLTKKNRLPVMVWIHGGGLMVGAASTYDGLALAAHENVVVVTIQYRLGIWGFFSTGDEHSRGNWGHLDQVAALRWVQDNIASFGGNPGSVTIFGESAGGESVSVLVLSPLAKNLFHRAISESGVALTSVLVKKGDVKPLAEQIAITAGCKTTTSAVMVHCLRQKTEEELLETTLKMKFLSLDLQGDPRESQPLLGTVIDGMLLLKTPEELQAERNFHTVPYMVGINKQEFGWLIPMQLMSYPLSEGQLDQKTAMSLLWKSYPLVCIAKELIPEATEKYLGGTDDTVKKKDLFLDLIADVMFGVPSVIVARNHRDAGAPTYMYEFQYRPSFSSDMKPKTVIGDHGDELFSVFGAPFLKEGASEEEIRLSKMVMKFWANFARNGNPNGEGLPHWPEYNQKEGYLQIGANTQAAQKLKDKEVAFWTNLFAKKAVEKPPQTEHIEL
  PS80 degradation pattern compared with mAb-1: equivalent degradation pattern
